For experiment [1], the target named is T1, cynomolgus 5T4 on cells (cynomolgus macaque, UniProt Q4R8Y9 35-420).
T1 construct: whole, on cells; also called CHO-K1/cynomolgus 5T4
T1 sequence (looked up): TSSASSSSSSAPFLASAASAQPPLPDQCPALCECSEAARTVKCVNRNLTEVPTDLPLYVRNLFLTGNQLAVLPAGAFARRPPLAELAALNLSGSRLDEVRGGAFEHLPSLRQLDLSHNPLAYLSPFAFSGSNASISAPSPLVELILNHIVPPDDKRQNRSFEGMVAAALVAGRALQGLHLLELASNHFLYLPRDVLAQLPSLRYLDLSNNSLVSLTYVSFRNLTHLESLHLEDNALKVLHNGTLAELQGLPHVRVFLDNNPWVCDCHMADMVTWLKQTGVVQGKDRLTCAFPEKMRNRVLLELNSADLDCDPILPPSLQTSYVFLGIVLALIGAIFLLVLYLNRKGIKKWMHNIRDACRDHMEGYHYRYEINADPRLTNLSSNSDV
Nature of the experiment: flow cytometry, CHO-K1/cynomolgus 5T4 transfectants (FIG. 7). How it is done:
(§1) Binding studies were performed by standard flow cytometry-based staining procedures two cell lines expressing 5T4:CHO-K1 cells (obtained from Alligator) transduced with human or cynomolgus macaque 5T4 and SKOV-3 human ovarian adenocarcinoma cells which express (human) 5T4. All labeling and washes were performed in U-bottom 96-well plates in saline buffer with 0.1% BSA and 2 mM EDTA. Cell were plated at approximately 100,000 cells per well and incubated with a range of 100 nM to 0.05 nM concentrations of test molecules in 50 μL volume/well, for 30 minutes on ice. Cells were washed three times then incubated for another 30 min on ice with fluorescently-labeled secondary polyclonal antibody, F(ab′)² goat anti-human IgG (Jackson ImmunoResearch Laboratories). The cells were then washed twice and the samples acquired in a BD LSRII or a Symphony A3 flow cytometer. The sample files were analyzed using FlowJo software; the mean fluorescence intensity (MFI-mean) or median fluorescence intensity (MFI-median) of the live population of cells in each well was calculated after gating on live cells (forward vs side scatter). Nonlinear regression analysis to determine EC₅₀ values was performed in GraphPad Prism 6® graphing and statistics software.

The target in experiment [2] is T2, recombinant human CD137 extracellular domain (human, UniProt Q07011 24-186).
T2 construct: The entry starts at Met 1; also called Hu CD137; 4-1BB ECD
Description: SPR, Biacore T200, bispecific captured by anti-human IgG, monomeric ECD injected, 1:1 model. As to the method:
(§2) Goat anti-human IgG F(ab′)2 fragment (Jackson ImmunoResearch) at 20 μg/mL in 10 mM sodium acetate (pH 4.5) was immobilized at a density of 2000 response units (RU) onto the flow cell of a CM5 research-grade sensor chip (GE) by standard amine coupling chemistry. Each bispecific variant at 200 nM in HBS-EP+ buffer was captured in the flow cell with the immobilized anti-human IgG at a flow rate of 50 μL/min for 60 sec to reach ˜500 RU response, leaving one flow cell surface unmodified as the reference. Following a 30 sec stabilization period, four different concentrations of each ECD (0, 20, 60, and 180 nM) were injected at 50 μL/min for either 120 sec followed by a 240 sec dissociation period (for 5T4) or 90 sec followed by a 180 sec dissociation period (for 4-1BB). Regeneration was achieved by duplicate injections of 10 mM glycine (pH 1.5) at a flow rate of 50 μL/min for 30 sec followed by HBS-EP+ buffer stabilization for 1 min.
(§3) Sensorgrams obtained from kinetic SPR measurements were analyzed by the double subtraction method. The signal from the reference flow cell was subtracted from the analyte binding response obtained from flow cells with immobilized or captured ligands. Buffer reference responses were then averaged from multiple injections. The averaged buffer reference responses were then subtracted from analyte binding responses, and the final double-referenced data were analyzed with Biacore T200 Evaluation software (2.0, GE), globally fitting data to derive kinetic parameters. All sensorgrams were fitted using a simple one-to-one binding model.

For experiment [3], the target named is T3, recombinant human 5T4 extracellular domain (human, UniProt Q13641 32-355).
T3 construct: The entry starts at Met 1; also called Hu 5T4; 5T4 ECD
T3 sequence: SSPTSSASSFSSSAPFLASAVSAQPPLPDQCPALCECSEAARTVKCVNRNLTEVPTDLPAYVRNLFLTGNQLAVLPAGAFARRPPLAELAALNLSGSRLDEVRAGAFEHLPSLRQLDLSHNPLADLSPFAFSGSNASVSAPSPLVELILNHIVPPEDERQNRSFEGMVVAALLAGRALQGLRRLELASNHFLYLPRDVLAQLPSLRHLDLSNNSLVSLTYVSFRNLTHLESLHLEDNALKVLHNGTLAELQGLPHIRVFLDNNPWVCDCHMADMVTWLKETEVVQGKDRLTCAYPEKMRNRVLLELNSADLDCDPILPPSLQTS
The experiment is described as above. As to the method: as §2, §3

The target of a further experiment is T4, human 5T4 on cells (human, UniProt Q13641 32-420).
T4 construct: Human 5T4 on transfected cells (CHO-K1, CT26, B16) or endogenous on human tumour lines; the cell line is named under assay; also called trophoblast glycoprotein; TPBG
T4 sequence: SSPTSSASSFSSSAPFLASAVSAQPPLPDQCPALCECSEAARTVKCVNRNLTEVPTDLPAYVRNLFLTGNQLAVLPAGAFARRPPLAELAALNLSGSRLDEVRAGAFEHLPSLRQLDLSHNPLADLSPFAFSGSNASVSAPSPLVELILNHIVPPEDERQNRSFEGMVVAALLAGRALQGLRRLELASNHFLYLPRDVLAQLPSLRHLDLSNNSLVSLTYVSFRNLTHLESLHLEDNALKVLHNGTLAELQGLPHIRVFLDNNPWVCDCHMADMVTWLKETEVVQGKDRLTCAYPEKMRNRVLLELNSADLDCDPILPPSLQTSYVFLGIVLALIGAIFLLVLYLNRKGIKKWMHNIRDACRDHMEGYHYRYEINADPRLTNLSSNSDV
Description: flow cytometry, SKOV-3 cells (FIG. 6). As to the method: as §1
The differences in EC₅₀ values between constructs were more evident when binding assays were conducted on SKOV-3 cells. […]

For experiment [4], the target named is T1, cynomolgus 5T4 on cells. Nature of the experiment: flow cytometry, CHO-K1/cynomolgus 5T4 transfectants (FIG. 14). As to the method:
as §1
All the constructs bound with EC₅₀ values in the range of 1 to 3 nM. […]

Experiment [5] has as its target T5, CD137 / 4-1BB (soluble antigen, form not stated) (UniProt Q07011 24-186, limits assumed).
T5 construct: also called biotinylated 4-1BB antigen; CD137 in ELISA
Description: ELISA.

B1: ALG.APV-187 (bispecific antibody)
chain: EVQLLESGGGLVQPGGSLRLSCAASGFTFSHGSMYWVRQAPGKGLEWVSSISSGSGSTYYADSVKGRFTISHDNSKNTLYLQMNSLRAEDTAVYYCARSSYYGSYYSIDYWGQGTLVTVSSGGGGSGGGGSGGGGSGGGGSDIQMTQSPSSLSASVGDRVTITCRASQSISSYLNWYQQKPGKAPKLLIYAASSLQSGVPSRFSGSGSGTDFTLTISSLQPEDFATYYCQQYYDNLPTFGQGTKLEIKSSEPKSSDKTHTCPPCPAPEAAGAPSVFLFPPKPKDTLMISRTPEVTCVVVDVSHEDPEVKFNWYVDGVEVHNAKTKPREEQYNSTYRVVSVLTVLHQDWLNGKEYKCAVSNKALPAPIEKTISKAKGQPREPQVYTLPPSRDELTKNQVSLTCLVKGFYPSDIAVEWESNGQPENNYKTTPPVLDSDGSFFLYSKLTVDKSRWQQGNVFSCSVMHEALHNHYTQKSLSLSPGSGGGGSGGGGSGGGGSPSEVQLLESGGGLVQPGGSLRLSCAASGFTFSSYAMSWVRQAPGKCLEWVSAISGSGGSTYYADSVKGRFTISRDNSKNTLYLQMNSLRAEDTAVYYCARYYGGYYSAWMDYWGQGTLVTVSSGGGGSGGGGSGGGGSGGGGSDIQMTQSPSSLSASVGDRVTITCRASQSISSFLNWYQQKPGKAPKLLIYAASSLQSGVPSRFSGSGSGTDFTLTISSLQPEDSATYYCQQTYGYLHTFGCGTKLEIKR
notes: scFv-Fc-scFv (ADAPTIR) homodimer with stabilizing disulfide in the 1210 scFv
For B1, in the experiment with cynomolgus 5T4 on cells [1], the binding result is given as “binds”. In experiment [2], the dissociation constant Kd worked out at 73 nM, the koff stood at 0.027 s⁻¹ and the on-rate constant (kon) stood at 370000 M⁻¹ s⁻¹. Further, in experiment [3], the Kd was 35 nM, the dissociation rate constant (koff) amounted to 0.00072 s⁻¹ and the kon was 21000 M⁻¹ s⁻¹.

B2: ALG.APV-198 (bispecific antibody)
chain: EVQLLESGGGLVQPGGSLRLSCAASGFTFSHGSMYWVRQAPGKGLEWVSSISSGSGSTYYADSVKGRFTISHDNSKNTLYLQMNSLRAEDTAVYYCARSSYYGSYYSIDYWGQGTLVTVSSGGGGSGGGGSGGGGSGGGGSDIQMTQSPSSLSASVGDRVTITCRASQSISSYLNWYQQKPGKAPKLLIYAASSLQSGVPSRFSGSGSGTDFTLTISSLQPEDFATYYCQQYYDNLPTFGQGTKLEIKSSEPKSSDKTHTCPPCPAPEAAGAPSVFLFPPKPKDTLMISRTPEVTCVVVDVSHEDPEVKFNWYVDGVEVHNAKTKPREEQYNSTYRVVSVLTVLHQDWLNGKEYKCAVSNKALPAPIEKTISKAKGQPREPQVYTLPPSRDELTKNQVSLTCLVKGFYPSDIAVEWESNGQPENNYKTTPPVLDSDGSFFLYSKLTVDKSRWQQGNVFSCSVMHEALHNHYTQKSLSLSPGSGGGGSGGGGSGGGGSPSEVQLLESGGGLVQPGGSLRLSCAASGFDFESYAMSWVRQAPGKCLEWVSAISGSGGSTYYADSVKGRFTISRDNSKNTLYLQMNSLRAEDTAVYYCARYYGGYYSAWMDYWGQGTLVTVSSGGGGSGGGGSGGGGSGGGGSDIQMTQSPSSLSASVGDRVTITCRASQSIRSALNWYQQKPGKAPKLLIYAASSLQSGVPSRFSGSGSGTDFTLTISSLQPEDFATYYCQQTYGYLHTFGCGTKLEIKR
notes: scFv-Fc-scFv (ADAPTIR) homodimer
B2: the binding result in the experiment with cynomolgus 5T4 on cells [1] and with human 5T4 on cells was “binds” in each case.

B3: ALG.APV-196 (bispecific antibody)
chain: EVQLLESGGGLVQPGGSLRLSCAASGFTFSYGSMYWVRQAPGKGLEWVSSISSGSGSTYYADSVKGRFTISHDNSKNTLYLQMNSLRAEDTAVYYCARSSYYGSYYSIDYWGQGTLVTVSSGGGGSGGGGSGGGGSGGGGSDIQMTQSPSSLSASVGDRVTITCRASQSISSYLNWYQQKPGKAPKLLIYAASSLQSGVPSRFSGSGSGTDFTLTISSLQPEDFATYYCQQYYDNLPTFGQGTKLEIKSSEPKSSDKTHTCPPCPAPEAAGAPSVFLFPPKPKDTLMISRTPEVTCVVVDVSHEDPEVKFNWYVDGVEVHNAKTKPREEQYNSTYRVVSVLTVLHQDWLNGKEYKCAVSNKALPAPIEKTISKAKGQPREPQVYTLPPSRDELTKNQVSLTCLVKGFYPSDIAVEWESNGQPENNYKTTPPVLDSDGSFFLYSKLTVDKSRWQQGNVFSCSVMHEALHNHYTQKSLSLSPGSGGGGSGGGGSGGGGSPSEVQLLESGGGLVQPGGSLRLSCAASGFDFESYAMSWVRQAPGKCLEWVSAISGSGGSTYYADSVKGRFTISRDNSKNTLYLQMNSLRAEDTAVYYCARYYGGYYSAWMDYWGQGTLVTVSSGGGGSGGGGSGGGGSGGGGSDIQMTQSPSSLSASVGDRVTITCRASQSIRSALNWYQQKPGKAPKLLIYAASSLQSGVPSRFSGSGSGTDFTLTISSLQPEDFATYYCQQTYGYLHTFGCGTKLEIKR
notes: as for B2
For B3, the binding result with cynomolgus 5T4 on cells [1] and with human 5T4 on cells was “binds” in each case.

B4: ALG.APV-210 (bispecific antibody)
chain: EVQLLESGGGLVQPGGSLRLSCAASGFTFSHGSMYWVRQAPGKGLEWVSSISSGSGSTYYADSVKGRFTISHDNSKNTLYLQMNSLRAEDTAVYYCARSSYYGSYYSIDYWGQGTLVTVSSGGGGSGGGGSGGGGSGGGGSDIQMTQSPSSLSASVGDRVTITCRASQSISSYLNWYQQKPGKAPKLLIYAASSLQSGVPSRFSGSGSGTDFTLTISSLQPEDFATYYCQQYYDNLPTFGQGTKLEIKEPKSSDKTHTCPPCPAPEAAGAPSVFLFPPKPKDTLMISRTPEVTCVVVDVSHEDPEVKFNWYVDGVEVHNAKTKPREEQYNSTYRVVSVLTVLHQDWLNGKEYKCAVSNKALPAPIEKTISKAKGQPREPQVYTLPPSRDELTKNQVSLTCLVKGFYPSDIAVEWESNGQPENNYKTTPPVLDSDGSFFLYSKLTVDKSRWQQGNVFSCSVMHEALHNHYTQKSLSLSPGSGGGGSGGGGSGGGGSPSEVQLLESGGGLVQPGGSLRLSCAASGFTFSSYAMSWVRQAPGKCLEWVSAISGSGGSTYYADSVKGRFTISRDNSKNTLYLQMNSLRAEDTAVYYCARYYGGYYSAWMDYWGQGTLVTVSSGGGGSGGGGSGGGGSGGGGSDIQMTQSPSSLSASVGDRVTITCRASQSISSFLNWYQQKPGKAPKLLIYAASSLQSGVPSRFSGSGSGTDFTLTISSLQPEDSATYYCQQTYGYLHTFGCGTKLEIKR
notes: scFv-Fc-scFv (ADAPTIR) homodimer with stabilizing disulfide in the 1210 scFv; also called ALG.APV-223; 5T4-CD137 bispecific antibody
Consider B4, for which, in the experiment with cynomolgus 5T4 on cells [4], the binding result is “binds”. Also, in experiment [2], the Kd was determined as 59 nM, the koff worked out at 0.033 s⁻¹ and the kon worked out at 550000 M⁻¹ s⁻¹. Also, in experiment [3], the dissociation constant Kd stood at 79 nM, the koff amounted to 0.0012 s⁻¹ and the kon was 15000 M⁻¹ s⁻¹. In experiment [5], this molecule returned a concentration for a half-maximal effect (EC50) of 0.7 nM.

The record behind these values is patent US20190382503A1 (published 2019).
